Measured values from patent US20150020221A1.

Target: PARP1 (endogenous, Hela cell lysate) (human) (UniProt P09874)
Experiment: scanning densitometry of PARP1 immunoprecipitates from Hela cells (FIG. 4B)

PARP1 (endogenous, Hela cell lysate) (human), sequence (P09874 2-1014 limits assumed): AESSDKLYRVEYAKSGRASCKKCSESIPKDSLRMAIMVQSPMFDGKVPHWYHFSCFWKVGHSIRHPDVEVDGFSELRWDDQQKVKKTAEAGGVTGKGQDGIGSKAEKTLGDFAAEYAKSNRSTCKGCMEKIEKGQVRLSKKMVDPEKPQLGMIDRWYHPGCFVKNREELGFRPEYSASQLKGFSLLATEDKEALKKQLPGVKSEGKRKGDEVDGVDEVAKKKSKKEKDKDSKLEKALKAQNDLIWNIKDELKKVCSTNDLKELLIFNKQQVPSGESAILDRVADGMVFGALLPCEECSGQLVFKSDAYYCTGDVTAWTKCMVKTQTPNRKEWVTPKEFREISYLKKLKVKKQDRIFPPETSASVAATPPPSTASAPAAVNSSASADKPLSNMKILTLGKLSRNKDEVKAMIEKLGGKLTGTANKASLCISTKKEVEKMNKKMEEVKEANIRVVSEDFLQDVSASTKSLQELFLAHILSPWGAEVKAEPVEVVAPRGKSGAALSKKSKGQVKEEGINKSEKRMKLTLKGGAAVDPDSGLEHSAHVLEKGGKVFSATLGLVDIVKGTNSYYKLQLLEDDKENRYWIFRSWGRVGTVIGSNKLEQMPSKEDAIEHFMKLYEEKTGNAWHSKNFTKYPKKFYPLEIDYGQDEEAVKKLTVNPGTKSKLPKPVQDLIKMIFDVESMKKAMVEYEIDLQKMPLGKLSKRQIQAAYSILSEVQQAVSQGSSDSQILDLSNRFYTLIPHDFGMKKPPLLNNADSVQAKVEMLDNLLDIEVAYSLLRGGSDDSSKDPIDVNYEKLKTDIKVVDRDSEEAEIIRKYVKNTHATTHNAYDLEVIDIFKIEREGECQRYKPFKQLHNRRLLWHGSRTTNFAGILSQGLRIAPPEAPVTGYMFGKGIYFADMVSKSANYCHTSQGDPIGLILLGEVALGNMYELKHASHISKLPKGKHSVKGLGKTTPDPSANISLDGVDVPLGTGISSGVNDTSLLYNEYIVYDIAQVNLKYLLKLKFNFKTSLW

fold increase co-immunoprecipitated with PARP1 (Dox-treated versus untreated cells): 4.8 fold
Substance: BAL1 (endogenous, Hela cell lysate) (from UniProt Q8IXQ6 1-854)
